The values that follow are results of earlier work, collected in PMC9163320.

In this data set the target is Asp303 (UniProt position 303, VILFMDRNLEQ). In words: NMR. As to conditions: folded Hint domain; no ligand stated.

As to “Hedgehog protein, Hint domain of HhC, C258A mutant (Drosophila melanogaster; C258A)”, the pKa is reported as 4.2.
“Hedgehog protein, Hint domain of the C-terminal autoprocessing domain (HhC) (Drosophila melanogaster)”: the pKa is given as 5.6.
